Test [1] addresses T1, human Nectin-4 on Nectin4-CHOK1 cells (CHO-K1 cell strain highly expressing Nectin-4) (human, UniProt Q96NY8 32-510).
T1 construct: also called Nectin4-CHOK1 clone 3
T1 sequence: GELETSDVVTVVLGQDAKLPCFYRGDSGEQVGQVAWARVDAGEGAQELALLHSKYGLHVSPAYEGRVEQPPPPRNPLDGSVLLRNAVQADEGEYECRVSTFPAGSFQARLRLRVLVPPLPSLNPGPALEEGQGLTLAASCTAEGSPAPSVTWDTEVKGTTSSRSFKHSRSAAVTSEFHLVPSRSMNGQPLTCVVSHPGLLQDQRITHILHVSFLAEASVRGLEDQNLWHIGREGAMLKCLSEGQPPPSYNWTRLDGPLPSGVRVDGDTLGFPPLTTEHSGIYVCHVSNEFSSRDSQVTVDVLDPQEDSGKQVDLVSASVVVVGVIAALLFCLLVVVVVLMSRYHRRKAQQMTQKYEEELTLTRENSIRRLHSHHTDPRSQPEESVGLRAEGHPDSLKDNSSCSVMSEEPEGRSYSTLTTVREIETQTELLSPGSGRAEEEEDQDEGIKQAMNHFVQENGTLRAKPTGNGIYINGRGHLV
Kind of test: flow cytometry on Nectin4-CHOK1 cells. As to the method: (§1) After centrifugation and removal of the supernatant, the test antibody that was diluted with the FACS buffer to different concentrations was added at 50 μL/well. The plate was incubated in the dark in a 4° C. refrigerator for 1 h. The plate was washed 3 times with FACS buffer by centrifugation at 500 g, and Alexa Fluor 488 Goat anti-Human IgG (H+L) (invitrogen, A-11013) was then added in a working concentration. The plate was incubated in the dark in a 4° C. refrigerator for 40 min. The plate was washed 3 times with FACS buffer by centrifugation at 500 g and tested on a BD FACSCantoII flow cytometer for geometric mean fluorescence intensity, and the EC₅₀ values for the binding of the antibodies to Nectin-4-expressing cells were calculated.
In general terms: In flow cytometry, cells or beads pass a laser one at a time.

Test [2] addresses T2, Nectin-4 expressed on T47D and MDA-MB-468 human breast cancer cells (human, UniProt Q96NY8 32-510).
T2 construct: whole, on cells; Nectin-4 native to the cell lines; also called Nectin-4-expressing cells
T2 sequence (looked up): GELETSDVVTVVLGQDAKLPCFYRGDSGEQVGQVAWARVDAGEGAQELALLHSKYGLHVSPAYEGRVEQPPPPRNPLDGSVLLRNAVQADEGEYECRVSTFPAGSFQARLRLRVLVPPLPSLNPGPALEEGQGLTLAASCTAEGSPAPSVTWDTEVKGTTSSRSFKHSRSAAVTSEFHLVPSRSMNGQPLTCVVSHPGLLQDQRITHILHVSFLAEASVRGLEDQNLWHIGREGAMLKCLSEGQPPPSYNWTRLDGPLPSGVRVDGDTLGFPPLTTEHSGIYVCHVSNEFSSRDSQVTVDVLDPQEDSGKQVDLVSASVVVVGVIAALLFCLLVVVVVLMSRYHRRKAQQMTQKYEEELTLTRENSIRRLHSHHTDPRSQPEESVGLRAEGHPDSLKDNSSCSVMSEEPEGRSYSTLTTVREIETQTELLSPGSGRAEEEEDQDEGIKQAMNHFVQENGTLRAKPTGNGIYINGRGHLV
Description: flow cytometry on T47D cells. As to the method: as §1

In test [3] the target is T2, Nectin-4 expressed on T47D and …. Description: flow cytometry on MDA-MB-468 cells. Here is the method: as §1
Test [4] has as its target T3, human Nectin-4 His (Cat. #19771-H08H, Sino Biological) (human, UniProt Q96NY8 32-349).
T3 construct: Bought soluble antigen; the construct is probably only a part of it; also called human Nectin-4 His antigen; not shown: His tag
T3 sequence: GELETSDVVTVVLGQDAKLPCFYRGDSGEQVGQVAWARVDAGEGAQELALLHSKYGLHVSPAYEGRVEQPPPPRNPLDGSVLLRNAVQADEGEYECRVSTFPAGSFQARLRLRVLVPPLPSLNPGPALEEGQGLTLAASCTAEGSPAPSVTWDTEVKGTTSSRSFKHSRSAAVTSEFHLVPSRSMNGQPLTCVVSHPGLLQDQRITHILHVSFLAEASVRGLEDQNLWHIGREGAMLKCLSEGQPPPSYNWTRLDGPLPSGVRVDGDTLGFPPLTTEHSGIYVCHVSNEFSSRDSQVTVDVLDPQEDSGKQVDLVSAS
Kind of test: SPR, Biacore T200; antibody captured on Protein A chip, human Nectin-4 His as analyte; 1:1 Langmuir model. As to the method:
The anti-Nectin-4 antibody was analyzed by Biacore T200 (GE) for characteristic affinity and binding kinetics. A Protein A biosensor chip (Cat. #29127556, GE) was used to affinity-capture IgG antibodies, and then the human Nectin-4 His (Cat. #19771-H08H, Sino Biological) antigen that was diluted with HBS-EP buffer (pH 7.4) (Cat. #BR-1001-88, GE) to a series of concentrations was allowed to flow over the surface of the chip. The antigen-antibody binding kinetics was tracked for 3 min and the dissociation kinetics was tracked for 10 min. Reaction signals were detected in real time using a Biacore T200 instrument to obtain binding and dissociation curves. After dissociation was complete in each cycle, the biosensor chip was washed with 10 mM Gly-HCl pH 1.5 (Cat. #BR-1003-54, GE) for regeneration. The data obtained were analyzed with BIAevaluation software of GE using a 1:1 (Langmuir) binding model.
For orientation: SPR reads the build-up and loss of mass on a sensor chip optically.

In test [5] the target is T1, human Nectin-4 on Nectin4-CHOK1 cells …. Description: cell-based or functional assay.

Usually EC50 stands for the concentration needed to bring the measured effect to its halfway point. A low value points to an effect from little substance. The Kd is the equilibrium constant for the complex coming apart. The koff is the rate constant with which the complex falls apart. For orientation: kon means the rate constant with which the complex forms. A lower kon goes with slow association.

B1: EV201 (positive control antibody; antibody of enfortumab vedotin) (antibody, human IgG1, kappa, V domains shown)
VH: EVQLVESGGGLVQPGGSLRLSCAASGFTFSSYNMNWVRQAPGKGLEWVSYISSSSSTIYYADSVKGRFTISRDNAKNSLSLQMNSLRDEDTAVYYCARAYYYGMDVWGQGTTVTVSS
VL: DIQMTQSPSSVSASVGDRVTITCRASQGISGWLAWYQQKPGKAPKFLIYAASTLQSGVPSRFSGSGSGTDFTLTISSLQPEDFATYYCQQANSFPPTFGGGTKVEIKR
notes: also called control antibody EV201; control molecule
B1 yielded a 50% effective concentration (EC50) in test [1] of 0.94 nM. Also, in test [2], the EC50 came out at 0.26 nM. In test [3], this molecule registered a 50% effective concentration (EC50) of 0.23 nM. Moreover, in test [4], the Kd came out at 9.33 nM, the koff is 0.00661 s⁻¹ and the on-rate constant (kon) was determined as 709000 M⁻¹ s⁻¹. Further, the “IC50 (nM) (DT3C antibody endocytosis assay, Nectin4-CHOK1 cells)” value in test [5] stood at 0.5 nM.

B2: NEC49 (fully human-derived anti-Nectin-4 antibody) (antibody, V domains shown)
VH: EVQLLESGGGLVQPGGSLRLSCAASGFTFSSYAMSWVRQAPGKGLEWVSAIYSGGSTYYADSVKGRFTISRDNSKNTLYLQMNSLRAEDTAVYYCTRHGGDSGSWSYYYYGMDVWGQGTTVTVSS
VL: not shown
notes: also called antibody NEC49
For the molecule B2, the 50% effective concentration (EC50) amounted to 0.78 nM in test [1], 0.07 nM in test [2] and 0.06 nM in test [3]. The affinity in test [4], expressed as Kd, was 5.15 nM. In test [4], this molecule registered a koff of 0.00189 s⁻¹. This molecule also registered an association rate constant (kon) in test [4] of 367000 M⁻¹ s⁻¹. The “IC50 (nM) (DT3C antibody endocytosis assay, Nectin4-CHOK1 cells)” value in test [5] turned out to be 0.43 nM.

The values are drawn from US20260199504A1 (JIANGSU HENGRUI PHARMACEUTICALS, published 2026).
